PMC4497479, “Molecular characterization of an MYB transcription factor from a succulent halophyte involved in stress tolerance”

molecular target: SbMYB44 (Salicornia brachiata, UniProt X2J380 1-269); assay: EMSA; 15 mM HEPES, 35 mM KCl, 4 mM EDTA (pH 8.0), 1 mM DTT, 1 mM MgCl2, 6% glycerol, room temperature 20 min; 80 ng probe, 40 ug protein in Methods (ng in Results/Fig. 5); SYBR Green stain; conditions: protein: recombinant; tags: 6xHis (pET28a, EcoRI/XhoI); blunt
Sequence (X2J380 entry or part of it): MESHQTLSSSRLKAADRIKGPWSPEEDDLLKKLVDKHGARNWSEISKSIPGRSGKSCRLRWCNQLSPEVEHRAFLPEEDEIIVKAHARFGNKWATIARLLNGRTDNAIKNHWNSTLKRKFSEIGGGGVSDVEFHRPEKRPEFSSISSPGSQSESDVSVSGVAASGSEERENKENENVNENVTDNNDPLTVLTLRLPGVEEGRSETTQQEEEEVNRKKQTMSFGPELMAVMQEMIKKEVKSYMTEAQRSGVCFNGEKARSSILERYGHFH

Binder	binding result
RD22 (dsDNA) DNA 1: CTTCTAACCACTACGTGCCTTCTGCTCCTTCTGC DNA 2: GCAGAAGGAGCAGAAGGCACGTAGTGGTTAGAAG	binds
RD29a DRE (dsDNA) DNA 1: TAAAAGATATACTACCGACATGAGTTCCAAAAAGC DNA 2: GCTTTTTGGAACTCATGTCGGTAGTATATCTTTTA	no binding
MBS-1 (dsDNA) DNA 1: CGAGACACCCTAACTGACACACATTCT DNA 2: AGAATGTGTGTCAGTTAGGGTGTCTCG	binds
